One assay addresses MERS.mFc (mAb2663-L1). Kind of assay: Luminex beads, supernatant.
Assay [1] concerns the target MOD4-SARS-CoV-2 Spike Protein (RBD)(R319-F541).mmH (SARS-CoV-2). Kind of assay: Luminex bead binding, antibody supernatant.
Assay [2] concerns the target MOD5-SARS-CoV-2 Spike Protein (RBD)(R319-F541).mmH (SARS-CoV-2). As to the kind of experiment: Luminex bead binding, antibody supernatant.
Assay [3] concerns the target MOD13-SARS-CoV-2 Spike Protein (RBD)(R319-F541).mmH (SARS-CoV-2). As to the kind of experiment: Luminex bead binding, antibody supernatant.
Assay [4] concerns the target MOD1-SARS-CoV-2 Spike Protein (RBD)(R319-F541).mmH (SARS-CoV-2). Kind of assay: Luminex bead binding, antibody supernatant.
Assay [5] has as its target MOD14-SARS-CoV-2 Spike Protein (RBD)(R319-F541).mmH (SARS-CoV-2). As to the kind of experiment: Luminex bead binding, antibody supernatant.
Assay [6] deals with MOD6-SARS-CoV-2 Spike Protein (RBD)(R319-F541).mmH (SARS-CoV-2). Kind of assay: Luminex bead binding, antibody supernatant.
The target of assay [7] is MOD9-SARS-CoV-2 Spike Protein (RBD)(R319-F541).mmH (SARS-CoV-2). As to the kind of experiment: Luminex bead binding, antibody supernatant.
The target of assay [8] is MOD12-SARS-CoV-2 Spike Protein (RBD)(R319-F541).mmH (SARS-CoV-2). As to the kind of experiment: Luminex bead binding, antibody supernatant.
The target in assay [9] is MOD7-SARS-CoV-2 Spike Protein (RBD)(R319-F541).mmH (SARS-CoV-2). Kind of assay: Luminex bead binding, antibody supernatant.
Assay [10] concerns the target MOD15-SARS-CoV-2 Spike Protein (RBD)(R319-F541).mmH (SARS-CoV-2). Kind of assay: Luminex bead binding, antibody supernatant.
Assay [11] addresses MOD8-SARS-CoV-2 Spike Protein (RBD)(R319-F541).mmH (SARS-CoV-2). Kind of assay: Luminex bead binding, antibody supernatant.
Assay [12] has as its target MOD10-SARS-CoV-2 Spike Protein (RBD)(R319-F541).mmH (SARS-CoV-2). As to the kind of experiment: Luminex bead binding, antibody supernatant.
Assay [13] has as its target MOD11-SARS-CoV-2 Spike Protein (RBD)(R319-F541).mmH (SARS-CoV-2). As to the kind of experiment: Luminex bead binding, antibody supernatant.
The target of assay [14] is MOD2-SARS-CoV-2 Spike Protein (RBD)(R319-F541).mmH (SARS-CoV-2). As to the kind of experiment: Luminex bead binding, antibody supernatant.
In assay [15] the target is MOD3-SARS-CoV-2 Spike Protein (RBD)(R319-F541).mmH (SARS-CoV-2). As to the kind of experiment: Luminex bead binding, antibody supernatant.
The target of assay [16] is high affinity human FcγR3a 176Val allotype receptor (human) (UniProt P08637). Kind of assay: cell-based or functional assay.
Assay [17] has as its target full-length SARS-COV-2 spike protein (amino acids M1-T1273 of NCBI accession number YP_009724390.1) (SARS-CoV-2) (UniProt P0DTC2). As to the kind of experiment: cell-based or functional assay.
Another assay deals with MERS.hFc (mAb2664-L1). As to the kind of experiment: Luminex beads, supernatant.
Another assay deals with Bt-MERS.hFc (mAb2664-L2). Kind of assay: Luminex beads, supernatant.
In assay [18] the target is SARS-CoV-2 spike protein, Wuhan-Hu-1 sequence (S-wt), on VSV pseudoparticles (SARS-CoV-2) (UniProt P0DTC2). As to the kind of experiment: cell-based or functional assay.
Assay [19] deals with Bt-SARS-CoV-2 Spike Protein (RBD) (R319-F541).mFc (column 6 of Table 8) (SARS-CoV-2). Kind of assay: Luminex beads, supernatant.

Chain of high affinity human FcγR3a 176Val allotype receptor (human) (P08637 17-254 F176V): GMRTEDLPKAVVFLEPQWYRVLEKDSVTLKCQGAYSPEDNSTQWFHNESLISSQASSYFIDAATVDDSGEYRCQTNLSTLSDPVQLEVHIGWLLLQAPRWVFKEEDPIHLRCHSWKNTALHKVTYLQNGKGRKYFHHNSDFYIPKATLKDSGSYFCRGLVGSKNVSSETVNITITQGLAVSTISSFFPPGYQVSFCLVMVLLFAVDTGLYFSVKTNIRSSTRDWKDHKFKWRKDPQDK

mAb10934 (antibody) came in with an MFI with MERS.mFc (mAb2663-L1) of 77 MFI. For the same substance, the binding signal (MFI) in [1] was determined as 31700 MFI; in [2], 6650 MFI; in assay [3], 30500 MFI; in assay [4], 81 MFI; in assay [5] it was 28600 MFI; in assay [6] it was 30800 MFI. Besides, the binding signal (MFI) in [7] is 31300 MFI; in assay [8], 32900 MFI; in assay [9], 29900 MFI; in assay [10] it was 27800 MFI; in assay [11], 6410 MFI; in [12] it was 30400 MFI. Moreover, the binding signal (MFI) in assay [13] is 30700 MFI; in assay [14], 27700 MFI; in [15] it was 25100 MFI. Also, in assay [16], the ADCC Mean RLU came to 11700 RLU.

Substance IgG1 Control (antibody) had an ADCP Max (% ADCP), Jurkat/hCD20/SARS-CoV-2 Spike cells in assay [17] of 10.4%.

For the substance mAb10933 (antibody), the MFI with MERS.hFc (mAb2664-L1) was 21 MFI; in the assay with MERS.mFc (mAb2663-L1) it was 22 MFI; in the assay with Bt-MERS.hFc (mAb2664-L2), 26 MFI. Besides, the ADCC (Activity (%)) in assay [16] stood at 68.5%. Besides, in assay [16], the ADCC Mean RLU amounted to 9740 RLU.

In the case of mAb10987 (antibody), in assay [16], the ADCC (Activity (%)) came out at 29.4% and the ADCC Mean RLU was 12000 RLU. This substance also gave a Relative neutralization at 5 µg/ml in assay [18] of 100%.

For mAb10989 (antibody), in assay [19], the MFI is 16100 MFI. Moreover, the binding signal (MFI) in [1] was 15800 MFI; in [2], 3370 MFI; in assay [5], 18100 MFI; in [6], 19600 MFI; in [7] it was 17800 MFI; in assay [8], 15100 MFI. Also, the binding signal (MFI) was found to be 15200 MFI in assay [9]; 15900 MFI in assay [10]; 6140 MFI in [11]; 15500 MFI in assay [12]; 16800 MFI in [13]; 16700 MFI in [14]. Besides, the binding signal (MFI) in assay [15] was 18300 MFI. Moreover, the ADCC (Activity (%)) in assay [16] turned out to be 21.5%. For the same substance, the ADCC Mean RLU in assay [16] came out at 10200 RLU.
